# Experimental data taken from patent publication US20110053139A1.
# Read-outs that look alike come from different tables or passages of the source.
# Tests used:
# [1] = target: Coxsackie virus B4 (JVB strain) viral particles (Coxsackie virus B4 (JVB strain)) (UniProt P08292)
# [2] = target: Herpes Simplex virus type 1 (HSV-1), purified virus; test: SH-SAW biosensor (325 MHz), 204-4 mAb; HSV-1 alone at 3.6×10^6/µl
# [3] = target: Coxsackie virus B4 (JVB strain) viral particles (Coxsackie virus B4 (JVB strain)) (UniProt P08292); test: SH-SAW biosensor (325 MHz), 204-4 mAb; Coxsackie B4 admixed with HSV-1 at equal concentration, low end of range
# [4] = target: Coxsackie virus B4 (JVB strain) viral particles (Coxsackie virus B4 (JVB strain)) (UniProt P08292); test: SH-SAW biosensor (325 MHz), 204-4 mAb; Coxsackie B4 admixed with HSV-1 at equal concentration, high end of range
# Sequence of UniProt P08292 (P08292 2-849): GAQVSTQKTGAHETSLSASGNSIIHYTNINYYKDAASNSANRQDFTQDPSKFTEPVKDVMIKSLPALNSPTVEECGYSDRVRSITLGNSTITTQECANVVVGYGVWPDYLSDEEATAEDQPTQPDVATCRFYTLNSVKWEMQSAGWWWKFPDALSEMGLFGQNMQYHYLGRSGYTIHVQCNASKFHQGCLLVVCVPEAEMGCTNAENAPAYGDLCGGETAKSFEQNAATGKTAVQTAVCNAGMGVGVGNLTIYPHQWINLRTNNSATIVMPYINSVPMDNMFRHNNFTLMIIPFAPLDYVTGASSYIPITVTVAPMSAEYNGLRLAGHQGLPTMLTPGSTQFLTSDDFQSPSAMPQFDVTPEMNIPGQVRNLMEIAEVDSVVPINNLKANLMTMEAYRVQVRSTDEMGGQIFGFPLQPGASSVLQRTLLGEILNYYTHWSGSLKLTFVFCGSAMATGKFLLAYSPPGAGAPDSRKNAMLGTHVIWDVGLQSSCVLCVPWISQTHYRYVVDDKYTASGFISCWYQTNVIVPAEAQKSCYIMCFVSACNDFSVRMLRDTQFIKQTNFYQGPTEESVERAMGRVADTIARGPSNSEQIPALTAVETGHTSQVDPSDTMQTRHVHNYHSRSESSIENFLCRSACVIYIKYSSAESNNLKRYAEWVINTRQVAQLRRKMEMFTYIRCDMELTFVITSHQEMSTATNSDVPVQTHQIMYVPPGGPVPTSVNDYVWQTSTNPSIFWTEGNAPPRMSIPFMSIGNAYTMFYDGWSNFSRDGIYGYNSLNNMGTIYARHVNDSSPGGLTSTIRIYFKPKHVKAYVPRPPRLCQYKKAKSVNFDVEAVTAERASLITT
substance,measurement,setting,value
"IgG2a isotype monoclonal antibody (mAb) directed against the JVB strain of Coxsackie virus B4, produ",phase differential mass shift Δφ,[1],0.95 to 6.99 degrees
same,phase differential mass shift Δφ,[2],0.64 degrees
same,phase differential mass shift Δφ,[3],1.09 degrees
same,phase differential mass shift Δφ,[4],7.24 degrees
